Laboratory results taken from the nanobody polyreactivity screen of Harvey et al. (2022).

Assay: yeast display, Sf9 membrane polyspecificity reagent, FACS + sequencing; frameworks hold sequencing errors
How it was run: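 Genes from sorted yeast were amplified by colony PCR, read by MiSeq 2 × 250 sequencing and filtered on CDR length. These cells carried a synthetic nanobody library in Saccharomyces cerevisiae BJ5465 and were sorted by FACS into low and high (top ~1%) gates on anti-HA and streptavidin fluorescence. Polyreactivity is labelled according to the gate of origin.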

| Sequence | polyreactivity (PSR sort gate) |
| --- | --- |
| QVQLVESGGGLVQAGGSLRLSCAASGRTFHYNAMGWYRQAPGKERELVAAISFNGGGTYYADSVKGRFTISRDNAKNTVYLQMNSLKPEDTAVYYCATDVPSRYDYWGQGTQVTVSS | low polyreactivity |
| QVQLVESGGGLVQAGGSLRLSCAASGRTFHYYAMGWYRQAPGKERELVAAITRGGNTYYADSVKGRFTISRDNAKNTVYLQMNSLKPEDTAVYYCAKTAAVNGGYDYWGQGTQVTVSS | high polyreactivity |
| QVQLVESGGGLVQAGGSLRLSCAASGRTFIANAMGWSRQAPGKERELVAAISWSGGSTYYADSVKGRFTISRDNAKNTVYLQMNSLKPEDTAVYYCTAKRFRTGFDYWGQGTQVTVSS | low polyreactivity |
| QVQLVESGGGLVQAGGSLRLSCAASGRTFIFYAMGWYRPAPGNVRELVAAITLRGGGTDYADSVKGRFTISRDNAKNTVYLQMTSQQPEETAVYYCNADGYPVPRRFDPYSYLSDYWGQGTQVTVSS | low polyreactivity |
| QVQLVESGGGLVQAGGSLRLSCAASGRTFIFYAMGWYRQAPGNERELVAAITLRGGGTDYADSVKGRFTISRDNAKYNVYLQMNSQKPEETAVYYCNADGYAVPRWFDPYSYLSDYWGQGTQVTVSS | low polyreactivity |
| QVQLVESGGGLVQAGGSLRLSCAASGRTFIFYAMGWYRQAPVKERELVAAITYSGTSTYYADSVKGRFTISRDNAKNTVYLQMNSLKPEDTAVYYCAKDGQRDANYYWGQGTQVTVSS | low polyreactivity |
| QVQLVESGGGLVQAGGSLRLSCAASGRTFIGNALGWYRQAPGKERELVASITRSGGSTYYADSVKGRFTISRDNAKNTVYLQMNSLKPEDTAVYYCAARVYTYYYDLHKRYYWGQGTQVTVSS | high polyreactivity |
| QVQLVESGGGLVQAGGSLRLSCAASGRTFIGNAMGWYRQAPGKERELVAGIDSDGSTNYADSVKGRFTISRDNAKNTVYLQMNSLKPEDTAVYYCAAVQGYRFYEYYYWGQGTQVTVSS | low polyreactivity |
| QVQLVESGGGLVQAGGSLRLSCAASGRTFIKYALGSYRQAPGKERELVAAISRNGGSTNYADSVKGRFTISRDNAKNTVYLLMNSLKPEDPAVYYCAAVGTVSRTVGYNYWGQGSQVTVSS | high polyreactivity |
| QVQLVESGGGLVQAGGSLRLSCAASGRTFILNAMGWYRQAPGKERELVAAISWSGGSTYYADSVKGRFTISRDTAKNTVYLQMNSLKPEDTAVHYCATVRAWIPSGDYEYWGQGTQVTVSS | low polyreactivity |
| QVQLVESGGGLVQAGGSLRLSCAASGRTFIPYAMGWYRQAPGKERELVAAISTTAGTTYYADSVKGRFTISRDNAKNTVYLQMNSLKPEDTAVYYCAARRRWYRRYGGDFWGQGTQVTVSS | high polyreactivity |
| QVQLVESGGGLVQAGGSLRLSCAASGRTFIPYAMGWYRQAPGKERELVAAISWSGGGTYYADSVKGRFTISRDNAKNTVYLQMNSLKPEDTAVYYCAAEYWDSYGYWTFDYWGQGTQVTVSS | high polyreactivity |
| QVQLVESGGGLVQAGGSLRLSCAASGRTFIPYAMGWYRQAPGKERQLVATIRRGGSTYYADSVKGRFTISRDNAKNTVYLQMNSLKPEDTAEYYCAATRYSFGPRRVDYWGQGTQVTVSS | high polyreactivity |
| QVQLVESGGGLVQAGGSLRLSCAASGRTFIRNAMGWYRQAPGKERELVAAISRSGGRTYYADSVKGRFTISRDNAKNTVYLQMNSLKPEDTAVYYCAAGSYQRYAFDYWGQGTQVTVSS | high polyreactivity |
| QVQLVESGGGLVQAGGSLRLSCAASGRTFIRNAMGWYRQAPGKERELVASISRRGGSTYYADSVKGRYTISRDNAKNTVYLQMNSLKPEDTAVYYCAKAYAFVTSGLGYDYWGQGTQVTVSS | high polyreactivity |
| QVQLVESGGGLVQAGGSLRLSCAASGRTFIRYAMGWYRQAPRKEREMVAAISYSGGTTYYADSVKGRFTISRDNAKNTVYLQMNSLKPEDTAVYYCARAGGYPLSRYGYWGQGTQVTVSS | high polyreactivity |
| QVQLVESGGGLVQAGGSLRLSCAASGRTFIRYCMGWYRQAPGKERELVAAITSRGGRTYYADSVKGRFTISRDNAKNTVYLQMNSLIREDTAVYYCAADTTWYSRYRHLWYRYYYWGQGTQVTVSS | high polyreactivity |
| QVQLVESGGGLVQAGGSLRLSCAASGRTFISIVMAWYRQAPGKERELVAAIRSSGRTYYADSVKGRFTISRDNAKITVYLQINSLKPVDTAVYYCAAPGGLLGSGYWGQGTLVTVSS | low polyreactivity |
| QVQLVESGGGLVQAGGSLRLSCAASGRTFIVNTMGWYRQAPGKERELVAAITARGGRTYYADSVKGRFTISRDNAKNTVYLQMNSLIPEDTAVYYCNASTPPREAERYYWGQGTQVTVSS | low polyreactivity |
| QVQLVESGGGLVQAGGSLRLSCAASGRTFIVYAMGWYRQAPGKERELVAGITRGSTNYADSVKGRFTISRDNAKNTVYLQMNSLKPEDTAVYYCAARSSRRGPISEGDYWGQGTQVTVSS | high polyreactivity |
| QVQLVESGGGLVQAGGSLRLSCAASGRTFIWYVMGWYRQAPGKERELVATISYGGITYYADSVKRRFTISRDNAKNTVYLQMNSLKPEDTAVYYCAAYKYTHKPHGDYWGQGTQVTVSS | high polyreactivity |
| QVQLVESGGGLVQAGGSLRLSCAASGRTFIYYAMGWNRQAPGKERELVAGITYSVGSTYYADSVKGRFTISRDNEKNTVYLQMNSLKPEDTAVYYCAADATFESDWGQGTQVTVSS | low polyreactivity |

| Sequence | polyreactivity (PSR sort gate) |
| --- | --- |
| QVQLVESGGGLVQAGGSLRLSCAASGRTFIYYAMGWYRQAPGKERELVAAITYSGTSTYYADAVKGRFTISRDNAKNTVYLQMNSLKPEDTAVYYCAKDGQRDAKYNWGQGTQVTVSS | low polyreactivity |
| QVQLVESGGGLVQAGGSLRLSCAASGRTFIYYAMGWYRQAPGKERELVASITTGGRTYYADSVKGRFTISRDNAKNTVYLQMNSLKPEDTAGYYCAAVRRIRRPRYGYWGQGTQVTVSS | high polyreactivity |
| QVQLVESGGGLVQAGGSLRLSCAASGRTFKFNAMGWYRQAPGKERELVAGITWTGSTTSYADSVKGRFTISRDNAKNTVYLQMNSLKPEDTAVYYCDADKIRFWYHGFYYRGQGTQVTVSS | low polyreactivity |
| QVQLVESGGGLVQAGGSLRLSCAASGRTFKFNTMGWYRQAPGKEREVVAAISWTGAITHYADSVKGRFTISRDNAKNTVYLQMNSLKPEDTAVYYCNSDPYRRIYNYWGQGTQVTVSS | low polyreactivity |
| QVQLVESGGGLVQAGGSLRLSCAASGRTFKFYAMGWYRQAPGKERELVAAISSSGGRTYYADSVKGRFTISRDNAKNTVYLQMNSLTPEDTAVYYCAAVPGSKFVQKDDYWGQGTQVTVSS | low polyreactivity |
| QVQLVESGGGLVQAGGSLRLSCAASGRTFKGNAMGWYRPAPGKERELVAVITGSGGSTYYADSVKGRFTISRDNAKNTVYLQMHSLKPEDTAVYYCAKQVRSYVRWEYDYWGQGTQGTVSS | low polyreactivity |
| QVQLVESGGGLVQAGGSLRLSCAASGRTFKGNAMGWYRQAPGKERELVAAISKSGGRTYYADSVKGRFTISRDNAKNTVYLQMNSLKPEDTAVYYCAAGYYPSSSGDDYWGQGTQVTVSS | high polyreactivity |
| QVQLVESGGGLVQAGGSLRLSCAASGRTFKGNAMGWYRQAPGKERKLVAVITGSGGSTYYADSVKGRFTISRDNAKNTVYLQMNSLKPEDTAVYYCAAESEPIRIRERDYWGQGTHVTVSS | low polyreactivity |
| QVQLVESGGGLVQAGGSLRLSCAASGRTFKIYAMGWYRQAPGKERELVAAIRRSGGNTYYADSVKGRFTISRDNAKNTVYLQMNSLKPEDTAVYYCATRGYPGGYQRSQSMYYWGQGTQVTVSS | high polyreactivity |
| QVQLVESGGGLVQAGGSLRLSCAASGRTFKKYAMGWFRQAPGKERELVAAITGSGGSTYYADSVKGRFTISRDNAKNTVYLQMNSLKPEDTADYYCAAYAYGVWHSQDGGNYWGQGTQVTVSS | low polyreactivity |
| QVQLVESGGGLVQAGGSLRLSCAASGRTFKKYAMGWYRQAPGKERELVAAITSRGGSTYYADSVKGRFTISRDNAKNTVYLQMNSLKPEDTAVYYCNAVRGWLYVFSYPYWDDEYWGQGTQVTVSS | high polyreactivity |
| QVQLVESGGGLVQAGGSLRLSCAASGRTFKKYAMGWYRQAPGKERELVSAITGSVGSTYYADSVKGRFTISRDNAKNTVYLQMNSLIPEDTAVYYCAAYAYGVWHSQDGGNYWGQGTQVTVSS | low polyreactivity |
| QVQLVESGGGLVQAGGSLRLSCAASGRTFKLNAMGWYRQAPGKERELVAGITRTGDSTYYADSVKGRFTISRDNAKNTVYLQMNSLKPEDTAVYYCAKDGPWKFIYDYWGQGTQVTVSS | low polyreactivity |
| QVQLVESGGGLVQAGGSLRLSCAASGRTFKLYAMGWYIQAPGKERELVAAISIRGTSTYYADSVKGRFTISRDNAKNTVYLQMNSLKPEDTAVYYCAAEDRYAYYMVRWQCYYYWGQGTQVTVSS | low polyreactivity |
| QVQLVESGGGLVQAGGSLRLSCAASGRTFKLYAMGWYRQAPGKERELVAAISRSSGSTYYADSVKGRFTISRDNAKNTDYLQMNSLKPEDTAVYYCAARKNRAYGYWGQGTQVTVSS | high polyreactivity |
| QVQLVESGGGLVQAGGSLRLSCAASGRTFKPNTMGWYRQAPGKERELVAAITSSGGSTYYADSVKGRFTISRDNAKNTVYLQMNSLKPEDTAVYYCAARGGAPYRIFKDDYWGQGTQVTVSS | high polyreactivity |
| QVQLVESGGGLVQAGGSLRLSCAASGRTFKPYALGWYRQAPGKERELDAAISTGGSTNYADSEKGRFTISRDNAKNSVYLQMNSLKPEDTAVYYCAADYFLYSYFLGLMDYWGQGTLVTVSS | low polyreactivity |
| QVQLVESGGGLVQAGGSLRLSCAASGRTFKPYAMGWYRQAPGKERELVAAIRSAGTTNYADSVKGRFTISRDNAKNTVYLQMNSLKPEDTAVYYCNAGTYLRRYYGFDYWGQGTQVTVSS | high polyreactivity |
| QVQLVESGGGLVQAGGSLRLSCAASGRTFKRNAMGWYRQAPGKEREFVAVITGSGGSTYYADSVKGRFTISRDNAKNTVYLQMNSLKPEDTAVYYCAAQATRYGQYTYDYWGQGTQVTVSS | high polyreactivity |
| QVQLVESGGGLVQAGGSLRLSCAASGRTFKRYAMGWYRQAPGKERELVAAIRQRGGSTYYADSVMGRFTISRDNAKNTVYLQMNSLKPEDTAVYYCAAVIPRPYSVGFDYWGQGTQVTVSS | high polyreactivity |
| QVQLVESGGGLVQAGGSLRLSCAASGRTFKSYAMGWYRQAPWKESELVAAISYSGGSTYYADSVKGRVTISRDNAKNTVYLQMNSLKPEDTAVYYCNVVSKVIRGLSGDGYWGVGTQVTVSS | high polyreactivity |
